Target: His-tagged wild-type SARS-CoV-2 RBD (SARS-CoV-2, UniProt P0DTC2)
Experiment: ELISA

| Binder | binding result |
| --- | --- |
| K102.1 (antibody, V domains shown) VH: EVQLLESGGGLVQPGGSLRLSCAASGFTFSDYAMSWVRQAPGKGLEWVSWIYSGSGNKYYADSVKGRFTISRDNSKNTLYLQMNSLRAEDTAVYYCARFPIARTSNSQSSYDGMDVWGQGTLVTVSS VL: QSVLTQPPSASGTPGQRVTISCSGSSSNIGSNAVSWYQQLPGTAPKLLIYADNKRPSGVPDRFSGSKSGTSASLAISGLRSEDEADYYCGAWDSSLNAYVFGGGTKLTVL | binds |
| K102.2 (antibody, V domains shown) VH: EVQVLESGGGLVQPGGSLRLSCAASGFTFSSYDMSWVRQAPGKGLEWVSGISYSGGSTYYADSVKGRFTISRDNSKNTLYLQMNSLRAEDTAVYYCARDVNFVPLVTFDYWGQGTLVTVSS VL: QSVLTQPPSASGTPGQRVTLSCTGSSSNIGSNSVTWYQQLPGTAPKLLIYDDNQRPSGVPDRFSGSKSGTSASLAISGLRSEDEADYYCGTWDYSLSAYVFGGGTKLTVL | binds |

— paper PMC9979629 (Antiviral Research, 2023)
